Assay results: the DeepSol protein solubility set

test: soluble on expression in E. coli; label from the status in PepcDB or PDB records

Sequence	soluble on expression in E. coli
MGSDKIHHHHHHMHSMALPESSYERLRAADCADEIAYVRACLRLYFSGAAAAAGDVSMPNLSAAAVADIARLNKVATFVLKVLSRAPVGERPAELFQWLDTYRRRTVSMNAACLMDSMVIHQALRDRQIDFVFLKGPFQQHLLYDDHFMKPSGDVDILVSPAGFSRARDALRSIGYEVSGKSRSVWWVRFLGEQHMIRGNGPSTVDLHYRLQQPGSPSPRDADGFLRRKRLVEITGTEVPFTSAADTLMLSCISVAKALFNHEPCAGYVCDIRASANRLGEADQQRVLDAAVSQGLDDTLLLGLRAADVLLGATGTLLSERAKPILSRIGNEDLLNMVIAPWLSSLRWPQRRTVLWELCGRAPVRYLAEAAWAASADISRRIFERPASP	not soluble
MGHHHHHHSHRSQPVHILAVRRLQEEDQQFRTSSLPAIPNPFPELCGPGSPPVLTPGSLPPSQAAAKQDVKVFSEDGTSKVVEILADMTARDLCQLLVYKSHCVDDNSWTLVEHHPHLGLERCLEDHELVVQVESTMASESKFLFRKNYAKYEFF	not soluble
TKDFEWKTTVTASHNANKLLSLSNDLYETSNQIDHAYLGEPINLSTQRMEVGRSMGQFYGMKSVGVSENGLWMVENTKTGEIEEFTDNMLSNDDYRQYLGNALPKLYLGWNNSFRYKNFDLSFQMTGQFGFKILNEPRAYYENNSIAYNRLKSVQKAPYGGQYTLSTAQKQTFVSYYLEDGDFLKMTNITLGYNIPLKSSKFVKNIRAYVSADNLFCITGYDGLDPEMSNGDIWSLGIDWRDKYPSTRSFTFGLNVSF	not soluble
MQLDIDGLKVLFPYDYVYPEQVLYMKEVKKALDARGHGLLEMPSGTGKTVSLLSLVLAYMISYPDKLDKLVYCSRTIPEIEKCVEEMKVLYDYWEKETGQPVAKITVAMSARKNLCVNEPVAALRFGNTVDSACQKLTASSARQKRAEDPTLEACDYFENFEAKSVPMQNGVWNLVKICEFWGTDKIEIFREKIQEI	not soluble
MAHHHHHHMAYPYNAYLGYTQPPTQYGQPPVVAGAHGHLPVTTPLPYNAQSAYGGAQPPMPTSTGVYAPSARHMNDNQELMEWFRAVDTDGSGAISVPELNAALSSAGVPFSLATTEKLLHMYDKNHSGEITFDEFKDLHHFILSMREGFRKRDSSGDGRLDSNEVRAALLSSGYQVSEQTFQALMRKFDRQRRGSLGFDDYVELSIFVCRVRNVFAFYDRERTGQVTFTFDTFIGGSVSIL	soluble
MQIDNISDEQVVIVRMSCYLKKDEIFKNIERYGYQSSDIKKISPPFPLNILPVPKPYYFYLYDTHLNQIYDLAWSCNDFLMFEIFILDRESIKYIDKDKLFKSRETLYSNFKSIKNQCKNYFFCGFDFDAPYFKSGVSQVADYNFVPDAFSLFFI	not soluble
MSLSTIYDIAKHAGVSKSTVSRVLNNQANISEESRKKVLAAIDQLNYQPSKLARALTSSGFDAIMVISNRSTTTTTGNPFFSEIIQSISTQAELENFDLILQTAKNSEDELKKCLSKIQEKMIKGIIMLSSPADEDFFHQLDPYNIPIVVTGKVEGHYKNIYSVDTDNFGDSYALTKHLIKQGHQKIACIHAPLDYHVSIDRLAGFRSCLFDHQLDLRNDWIIDSGYSIEDSYKAALRLMEGPDKPTAVFATDDLKVLSIYKMAADKNLQIPTDFSVIGYNDKVASSFLSPPLTSIDIPINKLGKKATNLLFRLIHQDKNVPKTTIIQTEMIERESIQKINEGHHHHHH	not soluble
MGSDKIHHHHHHMHTCPRCDSKKGEVMSKSPVEGAWEVYQCQTCFFTWRSCEPESITNPEKYNPAFKIDPKETETAIEVPAVPEPKGLIRVNCMSDRLFELLDGSCLNEKQHEAFVLQTVSEDGWPHAAMISAGEIIALSRTDIRIALWKNTMTSANILRTGKAQFTAWWKGAAYYVKLECAPLPPLKDAEYERDRFSCRIVSVKEDVAKYADLTSGVRIQLHSPEEVLSRWKKTLEDLKR	not soluble
MEWIERLNKAMSYIEEHITEEIDFEQTAKIACCSAYHFQRMFTYMAGIPLSEYIRRRRMTLAAVELQSSDEKVIDIALKYGYASPTAFNRAFQSVQGITPSAAKKKGTPVKSYPPLSFAITIKGVEGMNYRIEEKEAFRIIGIAQSMSKNLEENFAVVPQMWGKAAADGTIQKLASMIEGQPAGLLGVSICNNEEDWRYFIAVSGTRPAEAPFEEYRVPASTWAVFPGTGTNLSVQDLERRIVTEWLPTSGYEYGSAPDIEVYISPNPENAKYEVWIPVVKKQ	not soluble
HSLLPVDDAINGLSEEQRQLRQTMAKFLQEHLAPKAQEIDRSNEFKNLREFWKQLGNLGVLGITAPVQYGGSGLGYLEHVLVMEEISRASGAVGLSYGAHSNLCINQLVRNGNEAQKEKYLPKLISGEYIGALAMSEPNAGSDVVSMKLKAEKKGNHYILNGNKFWITNGPDADVLIVYAKTDLAAVPASRGITAFIVEKGMPGFSTSKKLDKLGMRGSNTCELIFEDCKIPAANILGHENKGVYVLMSGLDLERLVLAGGPLGLMQAVLDHTIPYLHVREAFGQKIGHFQLMQGKMADMYTRLMACRQYVYNVAKACDEGHCTAKDCAGVILYSAECATQVALDGIQCFGGNGYINDFPMGRFLRDAKLYEIGAGTSEVRRLVIGRAFNADFH	soluble
MSIMDVQHVAQFYQQLDKSQLHRLIEIYHPDVVFEDAAHRIEGFDALYQYFLNLYQNVHTCTFTIHEQYAVNEGAFLVWTMHLRHPKLAKGEQVDVKGVSHLHFAEGKVTYHRDYFDMGEMLYEQLPVLGQVIRAIKRRLGQ	not soluble
MKAIIISIGDELLKGHRVNTNAPFIARELGNIGIPVTRIITCSDDPQAIRDSVTLALTEAEAVFVTGGLGPTNDDRTRDAVRALLGRGLALDEPSFERIADYFRRRNRPVTEVMKDQAMVIEGSIAIPNTKGTAPGMIIECAPRFAGRHLVLMPGVPAEMEAMMRLTVVPFFAPLSGAFIRHTPVMTMGIGETQLADMIVEVEDSLPSGTTLAYLPHAAGVSLMVSTSGA	not soluble
MENVVIIDAVRTPMGRSKGGAFRHVRAEDLSAHLMRAVISRNPGLNAAEIDDIYWGCVQQTLEQGFNIARNASLLAEIPHSVPAVTVNRLCGSSMQALHDGARAIMVGDAKISLIGGVEHMGHVPMNHGVDFHPGMGRTVAKAAGMMGLTAEMLAKIHNISRQSQDEFAFRSHQRAYAATQAGHFAKEIVATNGHDAEGVLKRFDFDEVIRPETNLSGLAALRPAFDPVNGTVTAGTSSALSDGASAMLIMSESRAKSLGLTPRARIRSMAVVGCDPSIMGYGPVPASQLALKRAGLELADIGLFELNEAFAAQSLACLKGLGLLESMDDKVNLNGGAIALGHPLGCSGARISTTLLNLMERRDVQFGLATMCIGLGQGIATVFERL	not soluble
MGSDKIHHHHHHMKNLFLFCRAGFEKECAAEIQQRAGELNVGGFVKANNNDAYVVYQCFEEDAADTLVKQLPLDSLIFARQMFAASDLLVDLPESDRISPIVAALSDVSKAGEVRVETPDTNEAKELSAFCRKFTVPLRQHLKKSGSLLAQENPKRPIIHVCFIGPGRAYVGYSYSNNSSPHFMGIPRLKMAADAPSRSSLKLDEAFGQFVPKEEQEERIRSGMNAVDLGACPGGWTYQLVRRGMFVSAVDNGPMDEKLMETGQVKHYREDGFRFEPQRKNIYWLVCDMVRPSSL	not soluble
MTEDQVEILEYNFNKVNKHPDPTTLCLIAAEAGLTEEQTQKWFKQRLAEWRRSEGLPSECRSVTD	soluble
MSLQMKPEDILENIFYFRVCSYTEQIALVNHLEKFISENKDVKVVIVDSITFHFRQDYDDLAQRTRVLSEMALKFMKLAKKFSLAVVLLNQVTTKFSEGSFQLALALGDSWSHSCTNRVILYWNGDERYAYIDKSPSLPSASASYTVTSRGLRNSSEGHHHHHH	not soluble
VGSFYGQYLSIRKTEALLRNELNALTPATVMELADKLPEKSSSLVISYIRQVLQAHESPAQIQRLLANFEIAADKDLAISKTLTKLGP	not soluble
MGSVAARDYVGIATKYAEAAVADKGRKRHGRWIRLAAKRFLDDLKRARRRGTPFFFDEWHANDACDFIEKLPHVEGKWETPTIVMHPSHVFFVVQLFGFRRRDAIKVEGWGDDDTFHPRRFTSALFAVARKNAKSTLASAILLYCLCCEPEEGAQVISAATTFDQASIIFRASKRMVEKTPDLAEAFGLATWAKSISRFETGSSYKAVHAKASTQDGLNPSHTGLDEIHAHKTADLLNVLQSAAGARANPLWLFTTTEGYTNAGPWAEIRGFVFALLRGVLGTQADHFLALFYALDNEDKSAKITQDDEFDESKWIKANPLLDVNPHLKAAIRKEAVEAKQMPSKLAEFRIKRCNRPASTASGWVDLTKWAKCGGAVDLDWLAGYPCWGGLDLASTTDIAAFRLLWLVEGVWYTHGWRWVPSEAVKQRTERATVPYAGWVEAGYLLQTEGDVTDYSVIERDILAAVQRFDPQQIAYDAWNAADLVNRLVAASVPMVQFVQGTKSYHPAMQALELAYVGGKLVHGGDPVLAWCASNLVARRDVNLSMAPDRKRSADKIDDMAALLMAMGLAVASDDAEDLSDFFNNAVIGLEHHHHHH	soluble
MGSDKIHHHHHHMEIKGKVHYVGVNDRNKALFENLWPLPYGVSYNSYLIDDEMVALVDTVDVCYFEVYLKKIRSIIGDKPINYLIINHMEPDHSGSISLIKQYYPNIVIVGNKKTFEMIEGYYGVGGERYVVGEGDFLALGHHRLRFSLIPMVHWPETMVTFDETEGILFSGDAFGCFGALNGGVVDTNINTDIYWNEMVRYYSNIVGKYGAPVQKALQKLQNLKITTVCSTHGPVWTEEIPRVVRIYDRLSRYEAEEGVVIAYGSMYGNTEEVAEAIAEELSKQGIRNIVMHNVSHTSHSFIIADVFKYKGLIVGCPTYNTQMYPEMEALLSKLASREIKGRYLGYFGSFTWASAAVKKIAEFNDKLKFEPVGNPVEMKHSMKAETNTQAKELAKAMADRLKADRK	not soluble
MQAGKPILYSYFRSSCSWRVRIALALKGIDYKTVPINLIKDGGQQFSKDFQALNPMKQVPTLKIDGITIHQSLAIIEYLEETRPTPRLLPQDPKKRASVRMISDLIAGGIQPLQNLSVLKQVGEEMQLTWAQNAITCGFNALEQILQSTAGIYCVGDEVTMADLCLVPQVANAERFKVDLTPYPTISSINKRLLVLEAFQVSHPCRQPDTPTELRA	soluble
MGSDKIHHHHHHMVLRNSEGTHVHAADADQRPRAICLSTMTTNMQIVTLFRDAPDFAEPGNFEAHLVRLWSVIEALSGKDDRLGQWYLTGSTEEEALLYPAFEASGAPSTALLAVLKTKYQGKRNRAKVVGLWNGHNNPTDGATLKLSIDTGPLPSEVAIDPPKPRDAETGLAPLAAIQGIVSLLVATYAPAVVSVAPMDYFEKKVFDDKPGVGWMLYLPKVITQQQVPEARALIPVPAKGKQTGTIIVSVTDAPFSVDNPEHVAIANRIEIRLVDQDLLPAYVDI	not soluble
RHYPEVKKLVLLSTAVNAMEWPQIIENSKQVITEAKEVTLKNSPMFKRYQKKVTETPWTSTLQFKKMVALAKPVFEHIEIPTFIAQGSADPIVPAEKSVNFLMESIPGPKELFILEGSKHVICQDEQADKLFAAVLTFLQK	not soluble
MSLRVLIVENEIYLAQSIAAKLSDFGFECEIVSLVNEALREQEYDVVLLSTNVSGQNYYPIIEKHKDSIIILMISYVSDDTVSKPLKAGAKDYILKPFMIDELIRKIEHYRTFQKLKKEVQFYRRYLDFALSDFPSSLNQKLTTPFVIKSSTQKSADAYAIAYAKHKDIPLDFLSIKEGFHWRDKLKRALPCREIKYIVGLEELKKSERKELLEIVAKSCVILSFVSSEEGHHHHHH	not soluble
